# Data published in PMC9482650, “Quantitative fragmentomics allow affinity mapping of interactomes” (Nature Communications, 2022).
# T1: GRIP1_7, Q9Y3R0
# T1 sequence (Q9Y3R0 999-1096, limits assumed, looked up): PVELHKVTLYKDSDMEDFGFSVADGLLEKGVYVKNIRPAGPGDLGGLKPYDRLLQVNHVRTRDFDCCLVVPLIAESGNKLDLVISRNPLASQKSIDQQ
# T2: DLG3_3, Q92796
# T2 sequence (Q92796 374-475, limits assumed, looked up): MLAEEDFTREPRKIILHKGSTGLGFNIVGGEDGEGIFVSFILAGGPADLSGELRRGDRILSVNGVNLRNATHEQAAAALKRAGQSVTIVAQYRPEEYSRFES
# T3: PCLO, Q9Y6V0
# T3 sequence (Q9Y6V0 4491-4600, limits assumed, looked up): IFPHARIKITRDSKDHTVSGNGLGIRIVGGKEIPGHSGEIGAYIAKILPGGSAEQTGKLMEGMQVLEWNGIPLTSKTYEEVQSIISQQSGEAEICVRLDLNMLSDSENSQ
# T4: DFNB31_1, Q9P202
# T4 sequence (Q9P202 135-233, limits assumed, looked up): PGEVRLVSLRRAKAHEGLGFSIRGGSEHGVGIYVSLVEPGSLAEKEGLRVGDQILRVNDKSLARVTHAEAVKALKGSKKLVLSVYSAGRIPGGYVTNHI
# T5: DVL3, Q92997
# T5 sequence (Q92997 244-331, limits assumed, looked up): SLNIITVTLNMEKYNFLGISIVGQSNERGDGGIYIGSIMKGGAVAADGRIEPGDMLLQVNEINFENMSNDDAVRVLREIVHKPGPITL
# T6: TIAM2, Q8IVF5
# T6 sequence (Q8IVF5 885-986, limits assumed, looked up): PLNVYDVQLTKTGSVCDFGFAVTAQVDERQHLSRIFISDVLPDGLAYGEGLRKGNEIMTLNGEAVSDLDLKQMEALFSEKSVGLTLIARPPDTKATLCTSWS
# T7: GRIP1_3, Q9Y3R0
# T7 sequence (Q9Y3R0 247-346, limits assumed, looked up): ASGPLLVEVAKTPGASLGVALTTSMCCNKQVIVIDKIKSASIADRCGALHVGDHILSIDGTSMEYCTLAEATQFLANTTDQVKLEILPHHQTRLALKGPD
# T8: DFNB31_3, Q9P202
# T8 sequence (Q9P202 811-907, limits assumed, looked up): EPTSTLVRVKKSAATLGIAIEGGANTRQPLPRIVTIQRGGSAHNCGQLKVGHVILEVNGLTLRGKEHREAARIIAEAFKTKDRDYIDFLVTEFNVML
# T9: CARD11, Q9BXL7
# T9 sequence (Q9BXL7 662-765, limits assumed, looked up): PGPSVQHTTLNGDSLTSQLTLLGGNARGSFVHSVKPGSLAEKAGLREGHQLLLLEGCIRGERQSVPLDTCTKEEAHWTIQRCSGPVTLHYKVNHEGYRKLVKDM
# T10: RHPN1, Q8TCX5
# T10 sequence (Q8TCX5 508-602, limits assumed, looked up): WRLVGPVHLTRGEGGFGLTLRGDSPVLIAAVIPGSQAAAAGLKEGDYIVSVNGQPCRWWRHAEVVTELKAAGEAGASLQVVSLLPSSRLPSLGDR
# T11: LNX2_3, Q8N448
# T11 sequence (Q8N448 463-564, limits assumed, looked up): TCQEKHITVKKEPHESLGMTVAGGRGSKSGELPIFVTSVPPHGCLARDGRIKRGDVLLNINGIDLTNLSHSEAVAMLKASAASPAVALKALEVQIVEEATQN
# Molecular target: T1, GRIP1_7, Q9Y3R0
# Experiment: holdup assay
# Parameters: key: below the threshold = too weak to quantify, mostly under pKd 3.1 to 4
# Conditions: plain residues with an end cap or a label only (N-terminal biotin on a linker: ttds)
row,Binder,pKd
1,"CNTVTVETVV [MAS1, P04201]",below the threshold

# Molecular target: T2, DLG3_3, Q92796
# Experiment: holdup assay
# Parameters: key: below the threshold = too weak to quantify, mostly under pKd 3.1 to 4
# Conditions: plain residues with an end cap or a label only (N-terminal biotin on a linker: ttds)
row,Binder,pKd
1,"CNTVTVETVV [MAS1, P04201]",below the threshold

# Molecular target: DLG1_1, Q12959
# Experiment: holdup assay
# Parameters: key: below the threshold = too weak to quantify, mostly under pKd 3.1 to 4
# Conditions: plain residues with an end cap or a label only (N-terminal biotin on a linker: ttds)
row,Binder,pKd
1,"CNTVTVETVV [MAS1, P04201]",4.06

# Molecular target: MAGI2_3, Q86UL8
# Sequence (Q86UL8 600-682): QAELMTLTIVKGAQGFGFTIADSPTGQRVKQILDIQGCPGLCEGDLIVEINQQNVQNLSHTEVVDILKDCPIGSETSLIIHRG
# Experiment: holdup assay
# Parameters: key: below the threshold = too weak to quantify, mostly under pKd 3.1 to 4
# Conditions: plain residues with an end cap or a label only (N-terminal biotin on a linker: ttds)
row,Binder,pKd
1,"CNTVTVETVV [MAS1, P04201]",3.63

# Molecular target: DLG1_2, Q12959
# Experiment: holdup assay
# Parameters: key: below the threshold = too weak to quantify, mostly under pKd 3.1 to 4
# Conditions: plain residues with an end cap or a label only (N-terminal biotin on a linker: ttds)
row,Binder,pKd
1,"CNTVTVETVV [MAS1, P04201]",4.29

# Molecular target: T3, PCLO, Q9Y6V0
# Experiment: holdup assay
# Parameters: key: below the threshold = too weak to quantify, mostly under pKd 3.1 to 4
# Conditions: plain residues with an end cap or a label only (N-terminal biotin on a linker: ttds)
row,Binder,pKd
1,"CNTVTVETVV [MAS1, P04201]",below the threshold

# Molecular target: T4, DFNB31_1, Q9P202
# Experiment: holdup assay
# Parameters: key: below the threshold = too weak to quantify, mostly under pKd 3.1 to 4
# Conditions: plain residues with an end cap or a label only (N-terminal biotin on a linker: ttds)
row,Binder,pKd
1,"CNTVTVETVV [MAS1, P04201]",below the threshold

# Molecular target: MAGI2_5, Q86UL8
# Sequence (Q86UL8 915-1017): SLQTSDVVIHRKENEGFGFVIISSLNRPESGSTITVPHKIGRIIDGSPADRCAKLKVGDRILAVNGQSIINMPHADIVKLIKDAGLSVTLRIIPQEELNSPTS
# Experiment: holdup assay
# Parameters: key: below the threshold = too weak to quantify, mostly under pKd 3.1 to 4
# Conditions: plain residues with an end cap or a label only (N-terminal biotin on a linker: ttds)
row,Binder,pKd
1,"CNTVTVETVV [MAS1, P04201]",3.95

# Molecular target: TJP2_1, Q9UDY2
# Sequence (Q9UDY2 24-128): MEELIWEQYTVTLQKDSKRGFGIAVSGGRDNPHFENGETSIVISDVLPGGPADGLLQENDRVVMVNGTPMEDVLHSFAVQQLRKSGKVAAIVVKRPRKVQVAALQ
# Experiment: holdup assay
# Parameters: key: below the threshold = too weak to quantify, mostly under pKd 3.1 to 4
# Conditions: plain residues with an end cap or a label only (N-terminal biotin on a linker: ttds)
row,Binder,pKd
1,"CNTVTVETVV [MAS1, P04201]",below the threshold

# Molecular target: FRMPD3, Q5JV73
# Sequence (Q5JV73 12-100): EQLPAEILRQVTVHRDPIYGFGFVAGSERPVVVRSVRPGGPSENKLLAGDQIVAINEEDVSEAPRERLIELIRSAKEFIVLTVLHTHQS
# Experiment: holdup assay
# Parameters: key: below the threshold = too weak to quantify, mostly under pKd 3.1 to 4
# Conditions: plain residues with an end cap or a label only (N-terminal biotin on a linker: ttds)
row,Binder,pKd
1,"CNTVTVETVV [MAS1, P04201]",below the threshold

# Molecular target: MAGI1_2, Q96QZ7
# Sequence (Q96QZ7 456-580): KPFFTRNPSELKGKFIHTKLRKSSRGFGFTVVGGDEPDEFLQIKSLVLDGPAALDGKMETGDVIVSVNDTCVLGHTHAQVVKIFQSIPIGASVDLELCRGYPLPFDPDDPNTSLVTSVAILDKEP
# Experiment: holdup assay
# Parameters: key: below the threshold = too weak to quantify, mostly under pKd 3.1 to 4
# Conditions: plain residues with an end cap or a label only (N-terminal biotin on a linker: ttds)
row,Binder,pKd
1,"CNTVTVETVV [MAS1, P04201]",below the threshold

# Molecular target: DLG4_3, P78352
# Sequence (P78352 306-403): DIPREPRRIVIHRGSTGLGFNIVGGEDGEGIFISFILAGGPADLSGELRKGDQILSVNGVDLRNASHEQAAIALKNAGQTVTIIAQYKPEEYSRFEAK
# Experiment: holdup assay
# Parameters: key: below the threshold = too weak to quantify, mostly under pKd 3.1 to 4
# Conditions: plain residues with an end cap or a label only (N-terminal biotin on a linker: ttds)
row,Binder,pKd
1,"CNTVTVETVV [MAS1, P04201]",below the threshold

# Molecular target: T5, DVL3, Q92997
# Experiment: holdup assay
# Parameters: key: below the threshold = too weak to quantify, mostly under pKd 3.1 to 4
# Conditions: plain residues with an end cap or a label only (N-terminal biotin on a linker: ttds)
row,Binder,pKd
1,"CNTVTVETVV [MAS1, P04201]",below the threshold

# Molecular target: SCRIB_3, Q14160
# Sequence (Q14160 999-1103): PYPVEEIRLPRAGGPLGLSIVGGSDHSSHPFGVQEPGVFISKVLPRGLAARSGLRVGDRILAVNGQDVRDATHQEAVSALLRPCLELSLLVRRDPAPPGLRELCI
# Experiment: holdup assay
# Parameters: key: below the threshold = too weak to quantify, mostly under pKd 3.1 to 4
# Conditions: plain residues with an end cap or a label only (N-terminal biotin on a linker: ttds)
row,Binder,pKd
1,"CNTVTVETVV [MAS1, P04201]",below the threshold

# Molecular target: PTPN3, P26045
# Sequence (P26045 505-587): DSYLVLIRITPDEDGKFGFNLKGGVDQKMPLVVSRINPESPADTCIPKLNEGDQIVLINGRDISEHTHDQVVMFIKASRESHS
# Experiment: holdup assay
# Parameters: key: below the threshold = too weak to quantify, mostly under pKd 3.1 to 4
# Conditions: plain residues with an end cap or a label only (N-terminal biotin on a linker: ttds)
row,Binder,pKd
1,"CNTVTVETVV [MAS1, P04201]",3.8

# Molecular target: Inadl_6, Q8NI35
# Sequence (Q8NI35 1058-1167): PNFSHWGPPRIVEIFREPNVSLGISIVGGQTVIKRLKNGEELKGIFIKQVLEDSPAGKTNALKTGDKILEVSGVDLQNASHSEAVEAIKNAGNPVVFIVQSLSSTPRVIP
# Experiment: holdup assay
# Parameters: key: below the threshold = too weak to quantify, mostly under pKd 3.1 to 4
# Conditions: plain residues with an end cap or a label only (N-terminal biotin on a linker: ttds)
row,Binder,pKd
1,"CNTVTVETVV [MAS1, P04201]",below the threshold

# Molecular target: NHERF2_2, Q15599
# Sequence (Q15599 142-238): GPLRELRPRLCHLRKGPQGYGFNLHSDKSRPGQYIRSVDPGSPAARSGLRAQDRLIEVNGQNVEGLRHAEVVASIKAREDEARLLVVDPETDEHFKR
# Experiment: holdup assay
# Parameters: key: below the threshold = too weak to quantify, mostly under pKd 3.1 to 4
# Conditions: plain residues with an end cap or a label only (N-terminal biotin on a linker: ttds)
row,Binder,pKd
1,"CNTVTVETVV [MAS1, P04201]",below the threshold

# Molecular target: T6, TIAM2, Q8IVF5
# Experiment: holdup assay
# Parameters: key: below the threshold = too weak to quantify, mostly under pKd 3.1 to 4
# Conditions: plain residues with an end cap or a label only (N-terminal biotin on a linker: ttds)
row,Binder,pKd
1,"CNTVTVETVV [MAS1, P04201]",below the threshold

# Molecular target: MAST1, Q9Y2H9
# Sequence (Q9Y2H9 962-1065): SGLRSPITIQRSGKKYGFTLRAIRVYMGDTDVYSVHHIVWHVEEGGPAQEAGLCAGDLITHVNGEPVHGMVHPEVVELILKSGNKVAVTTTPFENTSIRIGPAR
# Experiment: holdup assay
# Parameters: key: below the threshold = too weak to quantify, mostly under pKd 3.1 to 4
# Conditions: plain residues with an end cap or a label only (N-terminal biotin on a linker: ttds)
row,Binder,pKd
1,"CNTVTVETVV [MAS1, P04201]",3.58

# Molecular target: Inadl_10, Q8NI35
# Sequence (Q8NI35 1673-1763): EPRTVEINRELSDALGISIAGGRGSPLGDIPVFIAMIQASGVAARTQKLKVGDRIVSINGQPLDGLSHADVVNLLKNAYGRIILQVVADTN
# Experiment: holdup assay
# Parameters: key: below the threshold = too weak to quantify, mostly under pKd 3.1 to 4
# Conditions: plain residues with an end cap or a label only (N-terminal biotin on a linker: ttds)
row,Binder,pKd
1,"CNTVTVETVV [MAS1, P04201]",below the threshold

# Molecular target: T7, GRIP1_3, Q9Y3R0
# Experiment: holdup assay
# Parameters: key: below the threshold = too weak to quantify, mostly under pKd 3.1 to 4
# Conditions: plain residues with an end cap or a label only (N-terminal biotin on a linker: ttds)
row,Binder,pKd
1,"CNTVTVETVV [MAS1, P04201]",below the threshold

# Molecular target: T8, DFNB31_3, Q9P202
# Experiment: holdup assay
# Parameters: key: below the threshold = too weak to quantify, mostly under pKd 3.1 to 4
# Conditions: plain residues with an end cap or a label only (N-terminal biotin on a linker: ttds)
row,Binder,pKd
1,"CNTVTVETVV [MAS1, P04201]",below the threshold

# Molecular target: T9, CARD11, Q9BXL7
# Experiment: holdup assay
# Parameters: key: below the threshold = too weak to quantify, mostly under pKd 3.1 to 4
# Conditions: plain residues with an end cap or a label only (N-terminal biotin on a linker: ttds)
row,Binder,pKd
1,"CNTVTVETVV [MAS1, P04201]",below the threshold

# Molecular target: T10, RHPN1, Q8TCX5
# Experiment: holdup assay
# Parameters: key: below the threshold = too weak to quantify, mostly under pKd 3.1 to 4
# Conditions: plain residues with an end cap or a label only (N-terminal biotin on a linker: ttds)
row,Binder,pKd
1,"CNTVTVETVV [MAS1, P04201]",4.09

# Molecular target: GRID2IP_2, A4D2P6
# Sequence (A4D2P6 272-370): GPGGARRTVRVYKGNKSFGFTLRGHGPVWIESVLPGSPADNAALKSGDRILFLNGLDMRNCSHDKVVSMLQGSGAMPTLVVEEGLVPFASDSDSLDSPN
# Experiment: holdup assay
# Parameters: key: below the threshold = too weak to quantify, mostly under pKd 3.1 to 4
# Conditions: plain residues with an end cap or a label only (N-terminal biotin on a linker: ttds)
row,Binder,pKd
1,"CNTVTVETVV [MAS1, P04201]",below the threshold

# Molecular target: CASK, O14936
# Sequence (O14936 487-570): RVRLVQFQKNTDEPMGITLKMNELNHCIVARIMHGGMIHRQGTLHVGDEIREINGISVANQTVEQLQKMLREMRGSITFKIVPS
# Experiment: holdup assay
# Parameters: key: below the threshold = too weak to quantify, mostly under pKd 3.1 to 4
# Conditions: plain residues with an end cap or a label only (N-terminal biotin on a linker: ttds)
row,Binder,pKd
1,"CNTVTVETVV [MAS1, P04201]",below the threshold

# Molecular target: T11, LNX2_3, Q8N448
# Experiment: holdup assay
# Parameters: key: below the threshold = too weak to quantify, mostly under pKd 3.1 to 4
# Conditions: plain residues with an end cap or a label only (N-terminal biotin on a linker: ttds)
row,Binder,pKd
1,"CNTVTVETVV [MAS1, P04201]",below the threshold
